US20050053993A1, “Uses of an endothelial cell receptor” (priority 2002, published 2005)

Tests used:
HT-29 = assay: Tumor cell proliferation, HT-29; type: cell-based; conditions: HT-29, 72 hours
Description: (§1) Cell Proliferation Assay. The effect of rK5 and rK5 peptides on endothelial cells were assessed using a proliferation assay with 1% BSA and 3 ng/ml bFGF in serum-free media. Relative cell numbers in each well of a 96 well microplate after incubation for 72 hours in the absence or presence of inhibitors were determined by using the AQueous cell proliferation assay (Promega, San Luis Obispo, Calif.). For all other cell lines tested for proliferation, minimal growth media was used (Cao, Y., Ji, R., Davidson, D., Schaller, J., Marti, D., Sohndel, S., McCance, S., O'Reilly, M., Llinas, M., and Folkman, J. Kringle domains of human angiostatin. Characterization of the anti-proliferative activity on endothelial cells. (1996) J. Biol. Chem. 271, 29461-29467). Results are presented as the percent inhibition of control cell (bFGF-induced) proliferation.

P388 = assay: Tumor cell proliferation, P388; type: cell-based; conditions: P388, 72 hours
Description: as §1

B16F10 = assay: Tumor cell proliferation, B16F10; type: cell-based; conditions: B16F10, 72 hours
Description: as §1

MDA 445 = assay: Tumor cell proliferation, MDA 445; type: cell-based; conditions: MDA 445, 72 hours
Description: as §1

HT1080 = assay: Tumor cell proliferation, HT1080; type: cell-based, human; conditions: HT1080, 72 hours
Description: as §1

Lewis Lung Carcinoma = assay: Tumor cell proliferation, Lewis Lung Carcinoma; type: cell-based; conditions: 72 hours
Description: as §1

HMVEC cells = assay: Apoptosis of stimulated endothelial cells (histone ELISA); type: cell-based, human
Description: FIG. 9B is a graph showing the induction by rK5 of apoptosis in stimulated endothelial cells. The rate of apoptosis was measured in HMVEC cells using a histone detection kit (Markwell, M. A. K. Anal Biochem 1982, 125, 427-432.) HMVECs were grown in 96 well plates. Recombinant K5 at various concentrations was added to plates and incubated overnight. Apoptosis was determined from triplicate samples and the Apoptotic index was determined by dividing the absorbance from the treated cells by the absorbance from the untreated cells.
Assessment of Cellular Apoptosis: The effects of rK5 and rK5 peptide-induced apoptosis were determined with a histone ELISA apoptosis assay (Roche, Indianapolis, Ind.)(Mayr M, Li C, Zou Y, Huemer U, Hu Y, Xu Q. Biomechanical stress-induced apoptosis in vein grafts involves p38 mitogen-activated protein kinases. FASEB J. 2000 Feb.; 14(2):261-70) Cells (5000 per well) were grown in 96 well plates. rK5 and/or an antibody to GRP78 were added to plates and incubated overnight. Apoptosis was determined from triplicate samples and the Apoptotic Index was determined by dividing the absorbance from the treated cells by the absorbance from the untreated cells.

[1] = system: EAHY cell surface proteins (~75 kDa and ~95 kDa); assay: S-tag-K5 affinity pull-down of biotinylated EAHY surface proteins; type: binding; conditions: 100 nM S-tag-K5; 1 μM peptides, 10 μM cold rK5
Description: The second method used to identify cell surface rK5 binding proteins was described previously (Zhang, J. C., et al, supra). Surface proteins on 4×10^6 EaHy cells were labeled with NHS-biotin. The cells were washed and lysed (M-Per, Pierce). Cell lysates were mixed with S-tag K5 for 1 hour at room temperature. S-tag K5 bound proteins were precipitated with S-protein agarose (Pierce). Bound proteins were eluted with excess rK5 or with excess PRKLYDY (SEQ ID NO:1) peptide. Eluted proteins were visualized with avidin-HRP and a chemiluminescent substrate. Mass spectroscopic analysis was used to identify the major protein bands.
In particular, surface proteins on 1×10^6 EAHY cells were labeled with NHS-biotin. The cells were washed 3× with PBS and lysed with M-pur. Cell lysates were mixed with (A) 100 nM S-tag-K5, (B) 100 nM S-tag-K5 plus 1 μM PRKLYDY, (C) 100 nM S-tag-K5 plus 10 μM cold rK5 and (D) 100 nM S-tag-K5 and N-terminal K5 peptide at 1 μM for 1 hour at room temperature. The K5 binding proteins were precipitated with S-protein-agarose. Bound proteins were eluted with 50 mM glycine buffer at pH 3.0 and run for PAGE analysis. Surface proteins (biotinylated) that bind K5 were visualized with avidin-HPR and a chemiluminescent substrate.

[2] = biological target: T1, recombinant GRP78 ATPase domain (Homo sapiens, UniProt P11021); assay: NMR binding to recombinant GRP78 ATPase domain
T1 construct: NMR studies with a recombinant GRP78 ATPase domain
T1 sequence (P11021 19-408): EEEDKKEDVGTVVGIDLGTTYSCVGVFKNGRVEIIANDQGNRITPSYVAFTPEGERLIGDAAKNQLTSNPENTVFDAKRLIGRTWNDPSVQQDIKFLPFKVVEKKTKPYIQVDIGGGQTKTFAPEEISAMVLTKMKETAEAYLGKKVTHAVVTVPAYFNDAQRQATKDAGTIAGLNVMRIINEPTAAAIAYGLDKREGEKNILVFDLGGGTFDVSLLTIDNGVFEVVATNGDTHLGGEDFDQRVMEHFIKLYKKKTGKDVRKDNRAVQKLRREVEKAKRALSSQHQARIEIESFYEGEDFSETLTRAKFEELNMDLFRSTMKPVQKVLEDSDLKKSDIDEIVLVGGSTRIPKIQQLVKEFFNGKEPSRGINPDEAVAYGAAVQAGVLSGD

B1: rK5: recombinant kringle 5 fragment of human plasminogen (residues 450-543), expressed in E. coli or yeast (protein)
chain: LLPDVETPSEEDCMFGNGKGYRGKRATTVTGTPCQDWAAQEPHRHSIFTPETNPRAGLEKNYCRNPDGDVGGPWCYTTNPRKLYDYCDVPQCAA
IC50 values for cell proliferation (HT-29): >100 µg/mL | IC50 values for cell proliferation (P388): >100 µg/mL | IC50 values for cell proliferation (B16F10): >100 µg/mL | IC50 values for cell proliferation (MDA 445): >100 µg/mL | IC50 values for cell proliferation (HT1080): >100 µg/mL | IC50 values for cell proliferation (Lewis Lung Carcinoma): >100 µg/mL | induction of endothelial cell apoptosis (HMVEC cells): 1 nM | apoptosis of stimulated endothelial cells (HMVEC cells; overnight, FIG. 9B): induced | competition of protein binding to the S-tag K5 column [1]: competed | binding with the ATPase domain of GRP78 (NMR) [2]: direct binding
